Target: T1, human DC-SIGN (DC-specific intercellular adhesion molecule 3-grabbing nonintegrin) (human, UniProt Q9NNX6 1-404)
T1 construct: whole, on cells; Target on THP-1 cells transfected with human DC-SIGN and on human moDCs; also called CD209; human DC marker DC-SIGN
T1 sequence (looked up): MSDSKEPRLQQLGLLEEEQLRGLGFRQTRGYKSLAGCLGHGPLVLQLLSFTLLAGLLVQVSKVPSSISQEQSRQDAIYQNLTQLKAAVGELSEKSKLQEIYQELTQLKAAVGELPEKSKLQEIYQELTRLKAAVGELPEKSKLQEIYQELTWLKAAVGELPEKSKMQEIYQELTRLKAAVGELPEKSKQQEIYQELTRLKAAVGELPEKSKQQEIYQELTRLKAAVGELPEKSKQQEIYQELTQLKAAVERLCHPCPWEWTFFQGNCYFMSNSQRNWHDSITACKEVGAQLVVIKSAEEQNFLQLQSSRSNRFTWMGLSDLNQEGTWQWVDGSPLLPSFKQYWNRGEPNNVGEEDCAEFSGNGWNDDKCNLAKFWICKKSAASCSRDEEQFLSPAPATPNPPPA
Test: confocal microscopy, fluorescent vaccine on human monocyte-derived DCs
Experimental: FIG. 3: Z-sections through a human monocyte-derived dendritic cell (moDC) incubated with Lipovaxin-MM. […] Cells were placed on coverslips immediately prior to observation under the confocal microscope.

B1: DMS5000 (other)
VH: STEVQLLESGGGLVQPGGSLRLSCAASGFTFDRRAMGWVRQAPGKGLEWVSSIESDGTRTYYADSVKGRFTISRDNSKNTLYLQMNSLRAEDTAVYYCAKHPGSSYVFDYWGQGTLVTVSS
notes: Human VH domain antibody (dAb), made as a secreted protein in E. coli; also called DC-SIGN specific domain antibody (dAb); dAb
  binding result: binds

— US20140341971A1 (LIPOTEK, published 2014)
